Experimental data reported in patent US20030229003, “Use of transcription factors for treating inflammation and other diseases” (published 2003).

Columns and labels:
ESE-1 (ELF3) [1] = biological target: T1, ESE-1 (ELF3) (Homo sapiens, UniProt P78545 P78545:1-371); assay: cell_activity
T1 sequence: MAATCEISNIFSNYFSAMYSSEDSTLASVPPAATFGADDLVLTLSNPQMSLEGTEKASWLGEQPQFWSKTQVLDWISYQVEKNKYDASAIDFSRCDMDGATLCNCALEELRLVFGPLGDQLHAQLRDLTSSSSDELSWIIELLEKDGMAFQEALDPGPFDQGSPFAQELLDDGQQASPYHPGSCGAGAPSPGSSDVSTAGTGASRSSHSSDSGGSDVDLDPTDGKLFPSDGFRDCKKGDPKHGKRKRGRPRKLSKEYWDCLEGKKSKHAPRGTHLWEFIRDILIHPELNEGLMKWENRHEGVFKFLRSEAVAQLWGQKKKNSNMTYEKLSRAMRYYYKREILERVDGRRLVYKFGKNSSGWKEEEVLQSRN

ESE-1 (ELF3) [2] = biological target: T1, ESE-1 (ELF3); assay: EMSA; strong specific complex; data not shown; details: tags: pCI/ESE-1, TNT rabbit reticulocyte lysate; label: 32P
ESE-1 (ELF3) [3] = biological target: T1, ESE-1 (ELF3); assay: EMSA; details: tags: pCI/ESE-1, TNT rabbit reticulocyte lysate; label: 32P
Procedure: Having identified putative targets for ESE- 1 we were also interested to determine whether ESE- 1 could specifically bind to Ets sites within the NOS2 promoter. An Ets binding site was identified which is highly homologous to the Ets consensus binding site for ESE- 1 (Oettgen, P., et al., 1999, J Biol Chem 274:29439-52). […] As is shown in FIG. 6, ESE- 1 binds equally well to both Ets sites.
In vitro transcription-translation was performed in TNT rabbit reticulocyte lysate (Promega) using the pCI/ESE- 1 vector as described (Oettgen, P., et al. et al. 1997, Mol Cell Biol 17:4419-33). EMSAs and supershift assays were performed using 2 μl of in vitro translation product or 3 μl of whole cell extract and (³²P)-labeled double stranded oligonucleotide probes in the presence or absence of competitor oligonucleotides (1, 10 or 100 ng) or antibodies as described (Akbarali, Y., et al. 1996. J Biol Chem 271:26007-12). Whole cell extracts were made from U- 138 Mg cells after incubation with IL-1β for 0, 3, and 8 hours using as lysis buffer 1% Triton X- 100, 25 mM glycylglycine pH7.8, 15 mM MgSO₄, 4 mM EGTA, 1 mM dithiothreitol, phenylmethylsulfonyl fluoride, Aprotinin, and Pepstatin. All antibodies for super-shift assays (2 μl per assay) were obtained from Santa-Cruz Technologies (CA) (Oettgen, P., et al. 1996, Mol Cell Biol 16:5091-106).

## NOS2 promoter -234/+31
ESE-1 (ELF3) [1]; luciferase transactivation, RAW cells, promoter length in Example 1M not stated
  activity: 12 fold

## COX-2 promoter -170/+103
ESE-1 (ELF3) [1]; luciferase, RAW 264.7
  activity: > 10 fold

B1: COX-2 promoter Ets site 3 (dsDNA)
DNA 1: CGAAAAGGCGGAAAGAAACAGT
DNA 2: ACTGTTTCTTTCCGCCTTTTCG
ESE-1 (ELF3) [2]
  binding result: binds

B2: COX-2 promoter Ets site 1 (dsDNA)
DNA 1: GCACGTCCAGGAACTCCTCAGC
DNA 2: GCTGAGGAGTTCCTGGACGTGC
ESE-1 (ELF3) [2]
  binding result: binds

B3: murine PSP promoter Ets site (dsDNA)
DNA 1: TCGACGAACATCCAGGAAATAGGGCTC
DNA 2: TCGAGAGCCCTATTTCCTGGATGTTCG
ESE-1 (ELF3) [3]
  binding result: binds
